The target in experiment [1] is human CCR8 tagged with ProLink (human). The experiment in a line: cell-based or functional assay.
For a further experiment, the target named is human CCR8 (human) (UniProt P51685). Kind of experiment: cell-based or functional assay.
Experiment [2] concerns the target cynomolgus CCR8 (cynomolgus). The experiment in a line: FACS, CHO cells expressing cynomolgus CCR8, signal at saturation. For orientation: A flow cytometer gives signals particle by particle.

cynomolgus CCR8 (cynomolgus), sequence (O97665 other isoform, or with tags, fused parts or gaps): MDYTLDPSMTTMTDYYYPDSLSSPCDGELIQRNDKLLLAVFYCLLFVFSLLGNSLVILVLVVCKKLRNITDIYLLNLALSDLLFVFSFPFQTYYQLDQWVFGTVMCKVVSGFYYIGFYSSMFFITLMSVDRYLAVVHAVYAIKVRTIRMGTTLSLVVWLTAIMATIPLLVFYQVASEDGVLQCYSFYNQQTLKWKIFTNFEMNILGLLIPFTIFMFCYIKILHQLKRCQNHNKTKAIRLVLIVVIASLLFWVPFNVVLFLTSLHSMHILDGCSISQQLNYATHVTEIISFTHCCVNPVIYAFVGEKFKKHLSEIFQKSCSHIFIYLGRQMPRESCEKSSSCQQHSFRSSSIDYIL

B1: 433H (antibody, from another filing, V domains shown)
VH: EVQLVETGGGLVQPKGSLRLSCAASGFPFNTFAMNWVRQAPGKGLEWLARIRSKSNNYATYYADSVKDRFTISRDDSRRMLYLLMNNVKFEDTAIYYCVRGKENNYGYAMDYWGQGTSVTVSS
VL: DIVMTQAAPSVPVTPGESVSISCRSSQSLLHSNGNTYLYWFLQRPGQSPQLLIYRMSNLASGVPDRFSGSGSGTAFTLRISRVEAEDVGVYYCMQHLEYPFTFGIGTKLELKR
B1 displayed an IC50 in nM for inhibition of CCL1 induced β-arrestin signaling (DiscoverX assay), CHO with hCCR8 in experiment [1] of 0.78 nM. Further, in the experiment with human CCR8 (human), the Ca flux assay IC50 (nM), block of signaling induced by CCL1 at 60 ng/ml; CHO cells expressing human CCR8 was determined as 1.3 nM; the Ca flux assay Span ratio (from max to min), block of signaling induced by CCL1 at 60 ng/ml; CHO cells expressing human CCR8 was 996; the Internalization [fold isotype], HuT78 cells, BODIPY FL-labelled antibody stood at 22 fold isotype.

B2: Clone 433H (ICOS, BD) (antibody, from another filing, V domains shown)
VH: EVQLVETGGGLVQPKGSLRLSCAASGFPFNTFAMNWVRQAPGKGLEWLARIRSKSNNYATYYADSVKDRFTISRDDSRRMLYLLMNNVKFEDTAIYYCVRGKENNYGYAMDYWGQGTSVTVSS
VL: DIVMTQAAPSVPVTPGESVSISCRSSQSLLHSNGNTYLYWFLQRPGQSPQLLIYRMSNLASGVPDRFSGSGSGTAFTLRISRVEAEDVGVYYCMQHLEYPFTFGIGTKLELKR
With B2, the MFI in experiment [2] is < 1000.

Source of the values: patent publication US20240376218A1.
